The values below come from the nanobody polyreactivity screen of Harvey et al. (2022).

This series is described as follows: yeast display, Sf9 membrane polyspecificity reagent, FACS + sequencing; frameworks hold sequencing errors. The procedure, abridged: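 Nanobodies from a synthetic yeast display library (Saccharomyces cerevisiae BJ5465), induced 36–48 hours with galactose, were stained 1 hour at 4 °C with 10% biotinylated, detergent-solubilized Sf9 membrane reagent, enriched on streptavidin microbeads, then FACS-sorted. Anti-HA (expression) and streptavidin (reagent binding) fluorescence set low and high (top ~1%) gates. Polyreactivity labels come from the gate of origin. Genes were colony-PCR amplified, MiSeq 2 × 250 sequenced and filtered by CDR length.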
Turning to “QVQLVESGGGLVQAGGSLRLSCAASGFNYYTMGWYRQAPGKERELVAAINYSGGRTYYADSVKGRFTISRDNAKNTVYLQMNSLKPEDTAVYYCNTARSPYDHRPERSYDYWGLGTQVTVSS”, the “polyreactivity (PSR sort gate)” value is “high polyreactivity”.

On to “QVQLVESGGGLVQAGGSLRLSCAASGFSFARNAMGWYRQAPGKERELVAAISDSGGRTYYADSVKGRFTISRDIAKNTVYLQMNSLKPEDTAVYYCAAALTFRMDYWGQGTQVTVSS”, for which the “polyreactivity (PSR sort gate)” value is recorded as “high polyreactivity”.

Take “QVQLVESGGGLVQAGGSLRLSCAASGFSFKRYAMGWYRQAPGKERELVADITRGGRTNYADSVKGRFTISRDNAKNTVYLQINSLKPEDTAVYYCNAVRQKYRFEYDYWGQGTQVTVSS”: the “polyreactivity (PSR sort gate)” value is “high polyreactivity”.

Turning to “QVQLVESGGGLVQAGGSLRLSCAASGFSFKYYAMGWYRQAPGKERELVATIRRGGSTYADSVKGRFTISRDNAKNSVYLQMNSLKPDDTAVYYCATRISSSTVPLYYFSGYNYWGQGTQVTVSS”, the “polyreactivity (PSR sort gate)” value is “high polyreactivity”.

As to “QVQLVESGGGLVQAGGSLRLSCAASGFSFRQYAMGWYRQAPGKERELVAAISRSGSRTYYADSVKGRFTLSRDNAKNTGYLQMNSLKAEDTAVYYCNAVFSTFTGEYYWGQGTQVTVSS”, the “polyreactivity (PSR sort gate)” value is given as “high polyreactivity”.

For the sequence “QVQLVESGGGLVQAGGSLRLSCAASGFSFSDYPMGWYRQAPGKERELVAAISGSGGSTYYADSVKGRFTISRDTAKNSVYLQMNSLKPEDTSVYYCNKGYARRYASGYDYWGQGTQVTVSS”, the “polyreactivity (PSR sort gate)” value was “high polyreactivity”.

Consider “QVQLVESGGGLVQAGGSLRLSCAASGFSIYRNSMGWYRPAPGKERELVAGISSGGSTNYADSVKGRFTISRDNAKNTVYLQMNSLKPEDTAVYYCATRVYALWFGRYDYWGQGTQVTVSS”, for which the “polyreactivity (PSR sort gate)” value is “high polyreactivity”.

For the sequence “QVQLVESGGGLVQAGGSLRLSCAASGFTAVGNAMGWYRPAPGKERELVASITNGGSTNYADSVKGRFTISRDNAKNTVYIQMNSLKPEDTAVYYCATDTYFDYTGALSHSGYYYWGQGTQVTVSS”, the “polyreactivity (PSR sort gate)” value is listed as “low polyreactivity”.

“QVQLVESGGGLVQAGGSLRLSCAASGFTCPSYNMRWYRQAPGKERELVAAISRSDGNTYYADSVKGRFTISRDNAKNTVYLQMNSLKPEDTEVYYCAAEYEAYAYEYWGQGTQVTVSS”: the “polyreactivity (PSR sort gate)” value is on record as “high polyreactivity”.

On to “QVQLVESGGGLVQAGGSLRLSCAASGFTCPYYMGWYRQAPGKERELVADISWSDGSTYYADSVKGRFTISRDNAKNTVSLQMNSLKPEDTAVYYCAADYVSSWFYLPEYDYWGQGTQVTVSS”, for which the “polyreactivity (PSR sort gate)” value is given as “high polyreactivity”.

On to “QVQLVESGGGLVQAGGSLRLSCAASGFTFADNAMGGYREAPGKERQFVASITYSTGSTYADSVKGRFTISRDNAKNTVYLQMHSLTPEDTAVYYCAVDNISNWAVENDYWGQGTQVTVSS”, for which the “polyreactivity (PSR sort gate)” value is given as “low polyreactivity”.

“QVQLVESGGGLVQAGGSLRLSCAASGFTFAFYAMGWYRQAPGKERELVAAISRRGGSTTYADSVKGRFTISRDNAKNTVYLQMNSLKPEDTAVYYCAAGWRGGRYRYFAYDYWGQGTQVTVSS”: the “polyreactivity (PSR sort gate)” value was “high polyreactivity”.

Regarding “QVQLVESGGGLVQAGGSLRLSCAASGFTFAGYAMGWYRQAPGKDRELVAAISWSGGRTYYADSVKGRFTISRDNAKNTVYLQMNSLKPEDTAVYYCAKLTLSSRWYYIYDYWGQGTQVTVSS”, the “polyreactivity (PSR sort gate)” value is “high polyreactivity”.

As for “QVQLVESGGGLVQAGGSLRLSCAASGFTFAGYAMGWYRQAPGKERELVAAISISGGRTYYADSVKGRFTSSRDYAKNTVYLQMNSLKPEDTAVYYCNAASREPSGYDYWGQGTQVTVSS”, the “polyreactivity (PSR sort gate)” value is listed as “high polyreactivity”.

For the sequence “QVQLVESGGGLVQAGGSLRLSCAASGFTFAGYGMGWYRQAPGKERELVAAISSSGGSTYYADSVKGRFTISRDNAKNTVYLQMNSLIPEDTAVYYCAAGRPYGDGDYWGQGTQVNVSS”, the “polyreactivity (PSR sort gate)” value is “high polyreactivity”.

As to “QVQLVESGGGLVQAGGSLRLSCAASGFTFANYAMGWYRQAPGKERELVASITRSGGSTYYADSVKGRFTISRDNAKNTVYLQMNSLKPEDTAVYYCAKDRRRWYYTRDYWGQGTQVTVSS”, the “polyreactivity (PSR sort gate)” value is recorded as “low polyreactivity”.

Regarding “QVQLVESGGGLVQAGGSLRLSCAASGFTFAPNPMGWYRPAPGKEWELVAAITRSGGSTYYADSVKGRFTISRDNAKNTVYLQMYSLKPEDTAVYYCNAGRRGSGYVYWGQGTQVTVSS”, the “polyreactivity (PSR sort gate)” value is recorded as “high polyreactivity”.

In the case of “QVQLVESGGGLVQAGGSLRLSCAASGFTFAPYDMGWYRQAPGKERELVATISWSGARTYYADSVKGRFTISRDNAKNTVYLQMNSLKAEDTAVYYCAAAYSSSKSSGNYYYWGQGTQVTVSS”, the “polyreactivity (PSR sort gate)” value is “high polyreactivity”.

For “QVQLVESGGGLVQAGGSLRLSCAASGFTFARNAMGWYRQATGKERELVASITQRGGSTNYADSVKVRFTISRDNAQNTVYLQMNSLKPEDTAVYYCNKASQLYYIQGTYSYGYWGQGTQVTVSS”, the “polyreactivity (PSR sort gate)” value is “low polyreactivity”.

Consider “QVQLVESGGGLVQAGGSLRLSCAASGFTFARNGMGWYRQATVKEREFVAAITRSGGRTYYADSVKGRFTISRDNAKNTVYLQMNSLKPEDTAVYYCAAATSYGKSEYDYWGQGTQVTVSS”, for which the “polyreactivity (PSR sort gate)” value was “high polyreactivity”.

With “QVQLVESGGGLVQAGGSLRLSCAASGFTFARYALGWYRQAPGKERELVAGITYRGGRTYYADSVKGRFTISRDNEKNTVYLQMNRLKPEDTAVYYCARYGPIKYYSWGQGTQVTVSS”, the “polyreactivity (PSR sort gate)” value was “high polyreactivity”.

For “QVQLVESGGGLVQAGGSLRLSCAASGFTFARYAMGWYRQAPGKERELVAAISRGTTTYYADSVKGRFTISRDNAKNTVYLQMNSLKPEDTAVYYCAARAVSEYFVVPFYYWGQGTQVTVSS”, the “polyreactivity (PSR sort gate)” value is “high polyreactivity”.

In the case of “QVQLVESGGGLVQAGGSLRLSCAASGFTFARYSMGWYRQAPGKERELVAAISRGGDSTYYADSVKGRFTISRDNAKNTVYLQMNSLKPEDSAVYYCAADISHRGYREYYSWGQGTQVTVSS”, the “polyreactivity (PSR sort gate)” value is given as “high polyreactivity”.

In the case of “QVQLVESGGGLVQAGGSLRLSCAASGFTFASNDMGWYRPAPGKERELVAAITKGGGRTYYADSVKGRFTISRDNAKNTVYLLMNSLKPEDTAVYYCAASQLIKYDYWGQGTEVTVSS”, the “polyreactivity (PSR sort gate)” value is “low polyreactivity”.

As to “QVQLVESGGGLVQAGGSLRLSCAASGFTFASYAMGWYRQAPAKEREFVAAITSRGGNTYYADSVKGRFTISRDNAKNTVYLQMNSLKPEDTAVYYCAAKSTYVVSKMNYWGQGTQVTVSS”, the “polyreactivity (PSR sort gate)” value is “high polyreactivity”.

Take “QVQLVESGGGLVQAGGSLRLSCAASGFTFASYAMGWYRQAPGKEREFVAAITRSGGSTYYADSVKGRFTISRDNAKNTVYLQMNSLKPEDTAVYYCNRVTSSEFDYWGQGTQVTVSS”: the “polyreactivity (PSR sort gate)” value was “high polyreactivity”.

“QVQLVESGGGLVQAGGSLRLSCAASGFTFASYAMGWYRQAPGKERELVAAISGSGTSTYYADSVKGRFTISRDKAKNTVYLQMNSLKPEHTAVYYCAARRYGYRYDYWGQGTQVTVSS”: the “polyreactivity (PSR sort gate)” value is on record as “high polyreactivity”.

Consider “QVQLVESGGGLVQAGGSLRLSCAASGFTFATNAMGWYTPAPGKERELVAVISSGGSTYYADSVKGLFTISRDNAKNTVYLQMNRLKPEDTAVYYCNAGRKVRGALDGYDYWGQGTQVTVSS”, for which the “polyreactivity (PSR sort gate)” value is recorded as “high polyreactivity”.

Regarding “QVQLVESGGGLVQAGGSLRLSCAASGFTFATYAMGWYRQAPGKERELVAAITSGDRTKYADSVKGRFTISRDNAKNTVYLQMNSLKPEDTAVYYCAATTYKVSTGYGYWGQGTQVTVSS”, the “polyreactivity (PSR sort gate)” value is recorded as “high polyreactivity”.

For the sequence “QVQLVESGGGLVQAGGSLRLSCAASGFTFAVFARGWYRQAPGKERELVAAISRTGTRTYYADSVKGRFTISRDNAKNTVYLQMNSLKPEDTAVYYWAADKYRHGYDYWGQGTQVTVSS”, the “polyreactivity (PSR sort gate)” value is “low polyreactivity”.

In the case of “QVQLVESGGGLVQAGGSLRLSCAASGFTFAVNAMGWYRQAPGKERELVAAISKSGGRTYYADSVKGRFTISRDNAKNTVYLQMNSLKPEDTAVYYCAADGPGYTYDYWGQGTQVTVSS”, the “polyreactivity (PSR sort gate)” value is given as “high polyreactivity”.

“QVQLVESGGGLVQAGGSLRLSCAASGFTFAVNAMGWYRQAPGKERELVAAISKSGGRTYYADSVKGRFTISRDNAKNTVYLQMNSLKPEDTAVYYCAAEGPGYTYDYWGQGTQVTVSS”: the “polyreactivity (PSR sort gate)” value is “high polyreactivity”.

Take “QVQLVESGGGLVQAGGSLRLSCAASGFTFAVYAMGWSRQAAAKERELVAAISRSGTRTYYADSVKGRFTISRDNGKNTVYLQMNSLKPEDTAVYYFAAEVPDTDAYGYWGQGTQVTVSS”: the “polyreactivity (PSR sort gate)” value is “low polyreactivity”.

In the case of “QVQLVESGGGLVQAGGSLRLSCAASGFTFAVYDMGWYRQAPGKERELVAVISSVGSTNYADSVKGRFTISRDNAKNTVYLQMNSLKPEDTAVYYCNAVYWYRDRWYQTGYGYWGQGTQVTVSS”, the “polyreactivity (PSR sort gate)” value is “high polyreactivity”.

Consider “QVQLVESGGGLVQAGGSLRLSCAASGFTFAVYTMGWYRQAPGKERELVAAITGSGGRTYYADSVKGRFTISRDNAKNTVYLQMNSLKPEDTAVYYCNAVQRSSRQTFEYCGQGTQVTVSS”, for which the “polyreactivity (PSR sort gate)” value was “low polyreactivity”.

Take “QVQLVESGGGLVQAGGSLRLSCAASGFTFAYDAMGWYRQAPGKERELVAAIRRRGGITYYADSVKGRFTISRDNAKNTVYLQMNSLKPEDTAVYYWNAVRSYPAGYDSWGQGTQVTVSS”: the “polyreactivity (PSR sort gate)” value is reported as “low polyreactivity”.

With “QVQLVESGGGLVQAGGSLRLSCAASGFTFAYYAMGSYRQAPGKERELVAAIRKSGATTYYADSVKGRFTISRDNSKNTVYLQMISLKPEDTAVYYCNAVVKSSSRGSIAHPGYDYWGQGTQVTVSS”, the “polyreactivity (PSR sort gate)” value was “high polyreactivity”.

Consider “QVQLVESGGGLVQAGGSLRLSCAASGFTFAYYAMGWYRQAPGKERELVAAISSGDNTNYADSVKGRFTISRDNAKNTVYLQMNSLKPEDTAVYYCNAEYNFKWWGPYWYYVKDDYWGQGTQVTVSS”, for which the “polyreactivity (PSR sort gate)” value is reported as “low polyreactivity”.

Consider “QVQLVESGGGLVQAGGSLRLSCAASGFTFAYYAMGWYRQAPGKERELVAAITSGGSTKYADSVKGRFTISRDNAKNTVYLQMNSVKPEDTAVYYCFLRGRATQWDFGYWGQGTQVTVSS”, for which the “polyreactivity (PSR sort gate)” value is reported as “high polyreactivity”.

In the case of “QVQLVESGGGLVQAGGSLRLSCAASGFTFAYYAMGWYRQAPGKERELVASITSGGSTYYADSVKGRFTISRDNAKNTVYLQMNSLKPEATAVYYCAARVRSELIKRYYWGQGTQVTVSS”, the “polyreactivity (PSR sort gate)” value is listed as “high polyreactivity”.

For “QVQLVESGGGLVQAGGSLRLSCAASGFTFAYYAMGWYRQAPGKETELVAAITSGGRTNYADSVKGRFTISRDNAKNTVYLQMNSVKPEDTAVDYCAKYRRGGSRHYSVFNHDYWGQGTQVTVSS”, the “polyreactivity (PSR sort gate)” value is given as “high polyreactivity”.
